Stoichiometry N data for two substances are collected here from paper PMC10951265.

Experiment [1] deals with PorXFj (Fjoh_2906), the Flavobacterium johnsoniae PorX homolog, purified, not phosphorylated (Flavobacterium johnsoniae) (UniProt A5FFU4). Briefly: SEC-MALS; PorXFj 1.6 mg/mL incubated 1 h at RT with 100 uM ZnCl2; column equilibrated in PBS only. For orientation: Size exclusion chromatography separates by hydrodynamic size, large species first.
For experiment [2] the target is unchanged. Briefly: SEC; PorXFj 1.6 mg/mL incubated 1 h at RT with 100 uM CuCl2; Superdex 200 Increase 10/300 GL in PBS with 100 uM CuCl2.
Experiment [3] shares this target. Put plainly: SEC; PorXFj 1.6 mg/mL incubated 1 h at RT with 100 uM MnCl2; Superdex 200 Increase 10/300 GL in PBS with 100 uM MnCl2.
For experiment [4] the target is unchanged. Put plainly: SEC; PorXFj 1.6 mg/mL incubated 1 h at RT with 100 uM ZnCl2; Superdex 200 Increase 10/300 GL in PBS with 100 uM ZnCl2.
The target in experiment [5] is phosphorylated PorXFj (PorXFj incubated with acetyl phosphate and MgCl2) (Flavobacterium johnsoniae) (UniProt A5FFU4). Put plainly: SEC-MALS; PorXFj 1.6 mg/mL incubated 1 h at RT with 20 mM AcP + 10 mM MgCl2; Superdex 200 Increase 10/300 GL in PBS.

Consider “PorXFj (Fjoh_2906), the Flavobacterium johnsoniae PorX homolog, purified, not phosphorylated (from UniProt A5FFU4 1-517) (natural protein)”, for which the stoichiometry N in experiment [1], in experiment [2], in experiment [3] and in experiment [4] was 2 each time.

“phosphorylated PorXFj (PorXFj incubated with acetyl phosphate and MgCl2) (from UniProt A5FFU4 1-517) (natural protein)”: in experiment [5], the stoichiometry N (as a rule, the number of molecules, sites or subunits per partner or assembly) was found to be 2.
